Broadly, the Kd is a measure of binding affinity in units of concentration. The low end stands for tighter binding, the high end for weaker binding.

This is an account of results in PMC6776900, “PPM1G forms a PPP‐type phosphatase holoenzyme with B56δ that maintains adherens junction integrity” (EMBO Reports, 2019).

What all share (test): BLI; Octet Red 96; His-tagged PPM1G or PPP2R1A immobilised on Ni-NTA biosensors, GST-B56δ proteins in solution (100–400 nm); 50 mM Tris pH 7.5, 300 mM NaCl, 0.01% NP-40 Igepal, 1 mM DTT; 25 °C
What all share (details): both partners purified
In general terms: In BLI a coated tip is dipped into the sample, and binding shifts an interference pattern.

Test [1] addresses T1, GST-B56δ L183A (human, UniProt Q14738 1-602, L183A).
T1 construct: B56δ (PPP2R5D), human cDNA, full length, point mutant; source: E. coli BL21 (DE3), purified (glutathione Sepharose)

For test [2], the target named is T2, GST-B56δ H282A (human, UniProt Q14738 1-602, H282A).
T2 construct: B56δ (PPP2R5D), human cDNA, full length, point mutant; source: E. coli BL21 (DE3), purified (glutathione Sepharose)

Test [3] has as its target T3, GST-B56δ (human, UniProt Q14738 1-602).
T3 construct: PP2A regulatory subunit B56δ (PPP2R5D), human cDNA, full-length protein; also called GST-B56δ wild type (WT); GST-tagged B56δ; source: E. coli BL21 (DE3), purified (glutathione Sepharose)

T1 sequence (Q14738 whole entry L183A): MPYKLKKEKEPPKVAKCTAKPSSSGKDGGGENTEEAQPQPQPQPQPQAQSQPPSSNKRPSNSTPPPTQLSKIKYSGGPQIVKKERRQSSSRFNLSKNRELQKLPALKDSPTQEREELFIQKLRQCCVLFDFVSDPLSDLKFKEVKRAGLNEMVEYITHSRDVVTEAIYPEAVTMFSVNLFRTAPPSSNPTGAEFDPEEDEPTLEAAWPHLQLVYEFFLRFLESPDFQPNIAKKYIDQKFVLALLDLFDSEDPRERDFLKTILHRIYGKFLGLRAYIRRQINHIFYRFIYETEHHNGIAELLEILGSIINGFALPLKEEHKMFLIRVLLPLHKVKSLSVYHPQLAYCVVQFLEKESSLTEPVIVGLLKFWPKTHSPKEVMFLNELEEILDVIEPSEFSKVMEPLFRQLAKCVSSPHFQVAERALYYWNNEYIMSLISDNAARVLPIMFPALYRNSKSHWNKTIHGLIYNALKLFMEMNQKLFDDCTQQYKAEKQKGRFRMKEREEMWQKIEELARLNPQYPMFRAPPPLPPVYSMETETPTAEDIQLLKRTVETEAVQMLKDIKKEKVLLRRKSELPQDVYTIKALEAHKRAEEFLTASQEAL
T3 sequence (Q14738 whole entry, stated change not applied): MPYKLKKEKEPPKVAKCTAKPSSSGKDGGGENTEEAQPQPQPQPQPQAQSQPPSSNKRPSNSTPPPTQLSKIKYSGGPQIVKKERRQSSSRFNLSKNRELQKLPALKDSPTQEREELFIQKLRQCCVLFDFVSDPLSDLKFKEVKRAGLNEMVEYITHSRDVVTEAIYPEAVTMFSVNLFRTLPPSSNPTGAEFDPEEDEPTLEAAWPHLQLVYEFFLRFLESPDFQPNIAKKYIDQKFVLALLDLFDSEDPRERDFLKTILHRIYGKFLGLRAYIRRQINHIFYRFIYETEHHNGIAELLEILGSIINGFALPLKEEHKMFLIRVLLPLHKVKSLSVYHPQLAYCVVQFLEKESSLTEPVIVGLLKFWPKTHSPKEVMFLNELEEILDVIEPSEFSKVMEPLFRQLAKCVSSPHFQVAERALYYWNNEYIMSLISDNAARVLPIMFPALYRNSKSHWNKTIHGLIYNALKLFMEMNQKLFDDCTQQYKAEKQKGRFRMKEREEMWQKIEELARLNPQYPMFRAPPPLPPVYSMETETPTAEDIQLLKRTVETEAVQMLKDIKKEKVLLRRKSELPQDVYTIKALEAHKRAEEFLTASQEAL
T2 sequence (Q14738 whole entry H282A): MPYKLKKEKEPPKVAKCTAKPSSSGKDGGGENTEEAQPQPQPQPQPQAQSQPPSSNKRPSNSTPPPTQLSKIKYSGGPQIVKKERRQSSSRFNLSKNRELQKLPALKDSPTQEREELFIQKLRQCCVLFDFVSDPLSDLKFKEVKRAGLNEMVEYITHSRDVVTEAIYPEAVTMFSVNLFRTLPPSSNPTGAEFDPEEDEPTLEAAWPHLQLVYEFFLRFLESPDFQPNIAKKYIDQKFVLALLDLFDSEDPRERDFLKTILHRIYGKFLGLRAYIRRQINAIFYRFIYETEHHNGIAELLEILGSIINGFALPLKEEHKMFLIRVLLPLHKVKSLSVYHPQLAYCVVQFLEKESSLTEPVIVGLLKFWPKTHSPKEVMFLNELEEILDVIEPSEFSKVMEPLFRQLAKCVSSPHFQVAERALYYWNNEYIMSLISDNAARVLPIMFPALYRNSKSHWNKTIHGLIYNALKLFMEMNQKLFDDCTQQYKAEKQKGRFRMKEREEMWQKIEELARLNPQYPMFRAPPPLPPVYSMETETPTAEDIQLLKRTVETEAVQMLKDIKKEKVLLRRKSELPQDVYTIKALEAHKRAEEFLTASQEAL

B1: 6xHis-tagged PPM1G (enzyme, human, UniProt O15355 1-546, looked up)
chain: MGAYLSQPNTVKCSGDGVGAPRLPLPYGFSAMQGWRVSMEDAHNCIPELDSETAMFSVYDGHGGEEVALYCAKYLPDIIKDQKAYKEGKLQKALEDAFLAIDAKLTTEEVIKELAQIAGRPTEDEDEKEKVADEDDVDNEEAALLHEEATMTIEELLTRYGQNCHKGPPHSKSGGGTGEEPGSQGLNGEAGPEDSTRETPSQENGPTAKAYTGFSSNSERGTEAGQVGEPGIPTGEAGPSCSSASDKLPRVAKSKFFEDSEDESDEAEEEEEDSEECSEEEDGYSSEEAENEEDEDDTEEAEEDDEEEEEEMMVPGMEGKEEPGSDSGTTAVVALIRGKQLIVANAGDSRCVVSEAGKALDMSYDHKPEDEVELARIKNAGGKVTMDGRVNGGLNLSRAIGDHFYKRNKNLPPEEQMISALPDIKVLTLTDDHEFMVIACDGIWNVMSSQEVVDFIQSKISQRDENGELRLLSSIVEELLDQCLAPDTSGDGTGCDNMTCIIICFKPRNTAELQPESGKRKLEEVLSTEGAEENGNSDKKKKAKRD
notes: PPM1G (PP2Cγ); The cloning into a His-tag vector is not described in the methods; also called His-PPM1G; recombinant PPM1G; source: recombinant
As for B1, the results for the Kd in test [1], in test [2] and in test [3] were 5.59 nM, 4.38 nM and 5.04 nM, respectively.
